# US20260258143A1 (ODYSSEY THERAPEUTICS, published 2026)
# Changes are numbered by the printed parent chain.
# B1: ODY-83B05Hu1 (VHH)
# VHH: EVQLLESGGGLVQPGGSLRLSCAASGFTLDYYAIGWFRQAPGKEREGVLSISSTDGRTYYADSVKGRFTISRDNPKNTVYLQLNSLRPEDTAVYYCAAKRLGPMVHRYSLEVLTPLFLDEYDYWGQGTQVTVSS
# notes: Captured on an SPR chip spot; also called ODY-83B05 humanized VHH; ODY-83805Hu1
# B2: ODY-83F07Hu1 (VHH)
# VHH: B1 VHH with R107Q
# notes: Captured on an SPR chip spot; also called ODY-83F07 humanized VHH
# B3: ODY-83B03Hu1 (VHH)
# VHH: EVQLVESGGGLVQPGGSLRLSCAASGMPLVAMGWYRQAPGKQRELVASISSGGNTGYADSVKGRFTISRDNAKKTVYLQMNSVRPEDTGVYYCNIYRSQVPPTRYSWGQGTQVTVSS
# notes: Captured on an SPR chip spot; also called ODY-83B03 humanized VHH
# Biological target: T1, human CD25-extracellular domain (CD25-ECD) (human, UniProt P01589 22-240)
# T1 construct: also called human CD25-ECD; hCD25 ECD
# T1 sequence: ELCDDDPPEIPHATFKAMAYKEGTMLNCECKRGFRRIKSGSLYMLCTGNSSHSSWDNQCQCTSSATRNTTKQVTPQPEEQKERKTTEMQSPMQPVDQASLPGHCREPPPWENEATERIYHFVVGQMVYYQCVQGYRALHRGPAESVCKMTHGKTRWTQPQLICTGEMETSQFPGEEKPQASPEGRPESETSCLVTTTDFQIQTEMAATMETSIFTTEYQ
# Test: SPR, V-body on chip, human CD25-ECD 500 nM then IL2-Fc 1000 nM
# Procedure: The sensorgrams display IL2-Fc competition: association of human CD25-extracellular domain (ECD) to the V-body followed either by additional binding by IL2-Fc, Indicating an unoccupied epitope (non-overlapping epitopes), or no IL2-Fc binding, indicating epitope blocking (overlapping epitopes), and a buffer control, association and dissociation of human CD25-ECD in the absence of IL2-Fc. Human CD25-ECD was injected (500 nM) under physiological conditions (50 mM HEPES pH 7.4, 150 mM NaCl, 0.1% (w/v) BSA, 0.05% (v/v) Tween20, 25° C.) followed by human IL2-Fc (1000 nM). V-body ODY-83B03Hu1 was identified as a ligand competitive binder. ODY-83B05Hu1 and ODY-83F07Hu1 were identified as non-competitive binders.
row,Binder,binding result
1,B1,binds
2,B2,binds
3,B3,binds
